Results on 1 molecule are retold here after patent US20150376265A1 (Genentech, published 2015).

Assay [1] deals with T1, Complex I with gH P171S, on virions of HB1 - mutant virus 3 (HCMV, UniProt P12824 24-743; P16832 31-278; P16837 28-171; F5HCP3 26-214; F5HET4 19-129).
T1 chain 1: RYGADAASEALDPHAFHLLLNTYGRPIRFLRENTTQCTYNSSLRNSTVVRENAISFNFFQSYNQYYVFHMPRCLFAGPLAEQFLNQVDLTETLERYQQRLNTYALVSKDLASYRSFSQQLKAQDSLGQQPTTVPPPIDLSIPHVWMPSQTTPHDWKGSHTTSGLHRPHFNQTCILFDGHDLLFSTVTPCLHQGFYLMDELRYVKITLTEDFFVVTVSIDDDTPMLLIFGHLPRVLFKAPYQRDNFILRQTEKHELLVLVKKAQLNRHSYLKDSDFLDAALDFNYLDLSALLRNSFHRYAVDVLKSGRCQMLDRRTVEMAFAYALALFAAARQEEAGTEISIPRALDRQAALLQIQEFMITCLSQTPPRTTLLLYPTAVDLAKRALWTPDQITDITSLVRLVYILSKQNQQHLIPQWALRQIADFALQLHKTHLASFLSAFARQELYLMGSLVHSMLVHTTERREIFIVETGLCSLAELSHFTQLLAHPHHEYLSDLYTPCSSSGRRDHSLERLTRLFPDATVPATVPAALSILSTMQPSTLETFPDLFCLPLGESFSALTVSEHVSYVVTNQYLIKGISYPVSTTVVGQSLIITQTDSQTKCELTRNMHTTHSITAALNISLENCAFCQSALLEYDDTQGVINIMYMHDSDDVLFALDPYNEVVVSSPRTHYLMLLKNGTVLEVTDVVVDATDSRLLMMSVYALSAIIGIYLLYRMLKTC
T1 chain 2: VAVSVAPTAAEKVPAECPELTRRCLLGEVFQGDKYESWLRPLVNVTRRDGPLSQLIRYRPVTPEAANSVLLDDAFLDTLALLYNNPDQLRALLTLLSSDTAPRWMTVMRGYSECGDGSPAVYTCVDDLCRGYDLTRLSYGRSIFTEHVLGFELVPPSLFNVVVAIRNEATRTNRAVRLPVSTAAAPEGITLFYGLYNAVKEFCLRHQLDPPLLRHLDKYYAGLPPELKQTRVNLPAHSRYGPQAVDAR
T1 chain 3: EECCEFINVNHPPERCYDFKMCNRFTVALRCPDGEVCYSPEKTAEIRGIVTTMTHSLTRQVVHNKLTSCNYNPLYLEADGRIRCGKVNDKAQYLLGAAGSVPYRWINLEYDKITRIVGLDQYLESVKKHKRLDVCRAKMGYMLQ
T1 chain 4: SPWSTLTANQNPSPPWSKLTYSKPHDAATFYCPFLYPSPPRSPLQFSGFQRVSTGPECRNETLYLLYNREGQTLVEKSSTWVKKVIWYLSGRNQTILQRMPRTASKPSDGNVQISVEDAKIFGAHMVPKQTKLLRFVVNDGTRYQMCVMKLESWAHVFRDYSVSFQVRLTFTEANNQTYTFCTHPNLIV
T1 chain 5: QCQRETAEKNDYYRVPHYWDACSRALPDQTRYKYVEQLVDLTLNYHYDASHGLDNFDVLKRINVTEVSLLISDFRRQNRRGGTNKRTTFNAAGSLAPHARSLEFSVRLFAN
As to the kind of experiment: cell-based or functional assay.

Assay [2] concerns the target T2, Complex I with gH W168R, on virions of HB1 - mutant virus 6 (HCMV, UniProt P12824 24-743; P16832 31-278; P16837 28-171; F5HCP3 26-214; F5HET4 19-129).
T2 chain 1: T1 chain 1 with W145R, S148P
T2 chain 2: T1 chain 2
T2 chain 3: T1 chain 3
T2 chain 4: T1 chain 4
T2 chain 5: T1 chain 5
As to the kind of experiment: cell-based or functional assay.

Assay [3] has as its target T3, gH/gL/gO on the surface of cells (HCMV, UniProt P12824 24-743; P16832 31-278; F5HGP1 32-472).
T3 construct: also called Complex II; cells expressing gH/gL/gO
As to the kind of experiment: FACS on transfected cells, data not shown.

Where a chain is given by its changes, count along the chain named.

T3 sequence (F5HGP1 32-472 limits assumed, one chain of several): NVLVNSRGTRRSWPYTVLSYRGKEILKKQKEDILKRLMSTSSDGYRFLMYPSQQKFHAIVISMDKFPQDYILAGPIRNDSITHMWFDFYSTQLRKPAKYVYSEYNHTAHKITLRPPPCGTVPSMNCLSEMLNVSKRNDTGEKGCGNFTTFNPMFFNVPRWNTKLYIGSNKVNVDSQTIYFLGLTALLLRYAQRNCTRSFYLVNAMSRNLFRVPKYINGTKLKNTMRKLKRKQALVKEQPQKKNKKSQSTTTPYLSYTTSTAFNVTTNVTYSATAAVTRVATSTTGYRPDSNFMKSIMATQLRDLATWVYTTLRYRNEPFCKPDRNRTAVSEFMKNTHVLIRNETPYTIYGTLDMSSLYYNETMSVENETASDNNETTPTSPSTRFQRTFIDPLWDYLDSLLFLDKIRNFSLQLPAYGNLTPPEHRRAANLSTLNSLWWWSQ

B1: hu8G8 (lambda4 8G8 graft and hu8G8.VH1) (antibody, V domains shown)
VH: EVQLVQSGAEVKKPGASVKVSCKASGYTFTNYGMNWVRQAPGQGLEWIGWINTYTGEPTYADDFKGRVTITRDTSTSTAYLELSSLRSEDTAVYYCARSWYYVSNYWYFDVWGQGTLVTVSS
VL: SVLTQSPSASASLGASVKLTCTLSSQHSTYTIEWYQQQPGKGPRYLMKLKKDGSHSTGDGIPDRFSGSSSGADRYLTISNLQSEDEADYYCGVGDTIKEQFVYVFGGGTKLTVLG
notes: also called hu8G8 with VH1; Humanized 8G8 with VH1
Regarding B1, in assay [1], the “hu8G8 EC50, neutralisation of HB1 - mutant virus 3, Data Set 1” value was 1 ng/mL and the “hu8G8 EC50, neutralisation of HB1 - mutant virus 3, Data Set 2” value came out at 0.1 ng/mL. Besides, in assay [2], the “hu8G8 EC50, neutralisation of HB1 - mutant virus 6, Data Set 2” value was 1 ng/mL. The binding result in assay [3] is “no binding”.
